The series deals with the molecule itself. Kind of series: crystal structure.

B1: CML1 (C. cinerea Mucin-binding Lectin 1), recombinant untagged (natural protein, Coprinopsis cinerea, UniProt B3VS76 1-127, looked up)
chain: MAIFHTGSELFIITRGPGKLTLLTWGGLNNLRSVIGAIPTENTGVTKWAVSFSHNYTRFSFIWEGQGEACYQIGNGLTRSPVGRSWSSSSTIHWGSSTVITEDVTSVVPGAVNRDKVTTAYALPDNL
Consider B1, for which the “stoichiometry N” value came out at 6.

These data come from article PMC9191617 (Glycobiology, 2022).
